From the nanobody polyreactivity screen of Harvey et al. (2022)

Experiment: yeast display, Sf9 membrane polyspecificity reagent, FACS + sequencing; frameworks hold sequencing errors
In short: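 A synthetic nanobody library was expressed on Saccharomyces cerevisiae BJ5465 by galactose induction for 36–48 hours. The library was stained for 1 hour at 4 °C with 10% biotinylated, detergent-solubilized Sf9 membrane reagent and enriched with streptavidin microbeads before FACS. Low and high (top ~1%) gates were set on anti-HA fluorescence for expression and streptavidin fluorescence for reagent binding, and each polyreactivity label reflects the gate of origin.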
For “QVQLVESGGGLVQAGGSLRLSCAASGFTLWYNTMGWYRQAPGKERELVASITIGDSTSYADSVKGRFTISRDNAKNTVYLQMNSLKPEDTAVYYCNAEIALNSYDTYHRAADGYNYWGQGTQVTVSS”, the “polyreactivity (PSR sort gate)” value was “low polyreactivity”.
For “QVQLVESVGGLVQAGGSLRLSCAASGRIFSTYAMGWYRQAPGKERELVAAIRFSGTSTYADSVKGRFTISRDNAKNTVYLQMNSLKPEDTAVDYCAAQRYTYYRRYGYLGQGTQVTVSS”, the “polyreactivity (PSR sort gate)” value was “high polyreactivity”.
With “QLQLVESGGGLVQAGGRLRLSCAASGITYFTYDMGWYRQAPGKERELVAAISGSGGSTYYADSVKGRFTISRDNAKNSFYLQMTSLKPEDTAVYYCAAEYTYGSPYDYWGQGTQVTVSS” the “polyreactivity (PSR sort gate)” value was “low polyreactivity”.
For “QVQLVESGGGLVQAGGSLRLSCAASGLIFRYYAMGWYRQAPGKERELVAVISRRGDSTYYADSVKGRFTISRDNAKNTVYLQMNSLKPEDTAVYYCAAQAFVSYFKFRGGYWGQGTQVTVSS”, the “polyreactivity (PSR sort gate)” value was “high polyreactivity”.
For “QVQLVESGGGLVQAGGSLRLSCAASGRTFLYNAMGWYRQAPGKERELVAGITQSGSSTYYADSVKGRFTISRDNAKNTVYLQMNSLKPEDTAVYYCAKVLYRRGYKFDYWGQGTQVTVSS”, the “polyreactivity (PSR sort gate)” value was “low polyreactivity”.
In the case of “QVQLVESGGGLVQAGGSLRLSCAASGSTFIANALGWYRQAPGKEREFVAAITWSGGSTYYADSVKGRFTLSRDNAKNTVFLQMNSLKPEDTAVYYCAKKGRTARGRYDYWGQGTQVTVSS”, the “polyreactivity (PSR sort gate)” value is reported as “low polyreactivity”.
With “QVQHVDSGGGLVQAGGSLRLSCAASGSTFGYNAMGWYRQAPGKERELVAAITFSGDSTSYADSVKGRFTISRDNAKNSVYLQMNSLKPEDTAVYYCAVDTWNGDGSGYSLEFEYWGQGTQVTVSS” the “polyreactivity (PSR sort gate)” value was “low polyreactivity”.
For “QVQLLESGGGLVQAGGSLRLSCMASGSILADRISWYRQAPRIEHELVATLYDGGITYYADSMKGRFTMSRDNAKNTVYLQMNSLRPEDTAVYYCGASFEGYRYHVYCGQGTQVTVSS”, the “polyreactivity (PSR sort gate)” value was “low polyreactivity”.
With “QVQLVESGGGLVQAGGSLRLSCAASGRIFLTNAMGSYRQAPGKERELVAAIRFSGGRTYYADSVKGRFTISRDNAKNTVYLQMNSLKPEDNAVYYCAADPPRTRYRNARFDYWGQGTQVTVSS” the “polyreactivity (PSR sort gate)” value was “high polyreactivity”.
For “QVQLVDSGGGIVQAGGSLRLSCAASGSTFGRKVMGWYRQAPGKERELVAAISFRGGSTYYADSVKGRFTISRDNAKNTVYLQMNSLKPEDTAVYYCARDYPTDAYDYWGQGTQVTVSS”, the “polyreactivity (PSR sort gate)” value was “low polyreactivity”.
In the case of “QVQLVESGGGLVQAGGSLRLSCAASGRIFGYNGMGWYRQAPGKERELVAAITSGGRTYYADSVKGRFTISRDNAKNTVYLQMNSLKPEDTAVYYCAAYFYQRGYGYVGPYGYWGQGTQVTVSS”, the “polyreactivity (PSR sort gate)” value is reported as “high polyreactivity”.
With “QVQLVESGGGLVQAGGSLRLSCAASGIIFSPNAMGWYRQAPGKERELVAGISSGGSTYYADSVKGRFTLSRDNAKNTVYLQMNSLKPEDTAVYYCAVRSRIFGSWYGYGYWGQGTQVTVSS” the “polyreactivity (PSR sort gate)” value was “high polyreactivity”.
With “QVQLVESGGGLVQAGGSLRLSCAASGFTFNRNAMGWYRQAPGKERELVAAISRGGSTSYADSVKGRFTISRDNAKNTVYLQMNSLKPEDTAVYYCATYFRVYYSQYDYWGQGTQVTVTS” the “polyreactivity (PSR sort gate)” value was “high polyreactivity”.
In the case of “QVQLVESGGGLVQAGGSLRLSCAASGITFGSNAMGWYRQAPGKERELVAAISRSGGRTYYADSVKGRFTISRDNAKNTVSLQMNSLKPEDTAVYDCATDSYTTGEYWGQGTQVTVSS”, the “polyreactivity (PSR sort gate)” value is reported as “high polyreactivity”.
With “QVQLVESGGGLVQAGGSLRLSCAASGFIFSYNAMGWYREAPGKERELVAAISSRGGSTYYADSVKGRFTISRDNAKNTVYLQMNSLKPEDTADYYCAVASRRVYTAPYDYWGQGTQVTVSS” the “polyreactivity (PSR sort gate)” value was “high polyreactivity”.
In the case of “QVQLVESGGGVVQAGGSLRLSCAASGSIFGVYAMGWYRQAPGQERELVAAIDSGSSTDYADSVKGRFTISRDNAKNTVYLQMNSLKPEDTAGYYCYPLDLAPVDYWGQGTQVTVSS”, the “polyreactivity (PSR sort gate)” value is reported as “low polyreactivity”.
With “QVQLVESGGGLVQAGGSLRLSCAASGSILFHYAMGWYRQAPGKERELVAAISRRGGSTYYADSVKGRFTISRDNAKNTVYFQMNSLKPEDNAVYYCAKYPSAYVDSDVTYDMDYWGQGTQVTVSS” the “polyreactivity (PSR sort gate)” value was “low polyreactivity”.
With “QVQLVESGVGLVQAGGTLRLSGAASGLIFEYYAMGWYRQPPGKETELVAAITTSGGSTYYADSVKGRFTISRDIAKNTVYLQMNSLKPEDTAVYDCAAVGVRSRYYGYDYWGQGTLVTVSS” the “polyreactivity (PSR sort gate)” value was “high polyreactivity”.
With “QVQLVESVGGLVQAGGSLRLSCAASGRIFPWYAKGWYRQAPGKERELVAAIRWRGGGTYYADSVKGRFTISRDNAKNTVYLQMNSLKPEDTAVYYCAARRPAKGMGYWGQGTQVTVSS” the “polyreactivity (PSR sort gate)” value was “high polyreactivity”.
For “QVQLVESGGGLVQAGGSLRLSCAASGRTFGTYAMGWYRQAPGKERELVASITSGDSTNYADSVKGRFTISRDNAKNTVYLQMNSLKPEDTAVYYCNADIEFYVLFAYWGQGTQVTVSS”, the “polyreactivity (PSR sort gate)” value was “low polyreactivity”.
With “QVHLVESGGGLVQAGGSLRLSCAASGSILGSNAMGWYRQAPGKERELVAAISSGGSTDYADSVKVRFTISRDNAKNTVYLQMYCLKPEDTAVYYCAAGFIYHYGLYKIYDYYYWGQGTQVTVSS” the “polyreactivity (PSR sort gate)” value was “low polyreactivity”.
For “QVQLVESGGGLVQAGGSLRLSCAASGSISYRYVMGWYRQAPGKERELVAAITTSGGSTYYADSVKGRFTISRDNAKNTVYLQMNSLKPEDTAVYYCATVYQAAQLRSHYDYWGQGTQVTVSS”, the “polyreactivity (PSR sort gate)” value was “high polyreactivity”.
With “QDQLVESGGGLVQAGGSLRLSCAASGFIFYYYAMGWYRPAPGKERELVAAISGSGGSTYYADSVKGRFTISRDNAKNTVYLQMNSLKPEDTAVYYCNARRPGYYVYYFAYDYWGQGTQVTVSS” the “polyreactivity (PSR sort gate)” value was “high polyreactivity”.
With “QVQLVESGGGLVQAGGSLRLSCAASGNIFGFYTMGWYRQAPGKERELVAAIRSRGGSTNYADSVKGRFTISRDNAKNTVYLQMNSLKPEDTAVDYCAADPRYISYDYWGQGTQVTVSS” the “polyreactivity (PSR sort gate)” value was “low polyreactivity”.
With “QVQLVESGGGLVHAGGSLRLSCAASGRIFVGYYAMGWYRQAPGKERELVAAITIGGRTYYADSVKGRFTISRDNAKKTVYLQMKSLKPEDTAVYYCAASKYSRAYQEFGYWGQGTQVTVSS” the “polyreactivity (PSR sort gate)” value was “high polyreactivity”.
With “QVQLVESGGGLVQAGGSLRLSCAASGGTFDYYAMGWYRQAPGKERELVAAISTSGGRTYYADSVKGRFTISRDNAKNTVYLQMNSLTPEDTAVYYCAALSRRAKYDSFYYWGQGTQVTVSS” the “polyreactivity (PSR sort gate)” value was “high polyreactivity”.
For “QVQLVESGGGLVQAGGSLRLSCAASGFTFTWYAMGLYRQAPGKERELVAAISSGGGRTYYADSVKGRFTISRDNAKNTVYLQMNRLKPEDTAVYYCNAVAGGVYVDNGYDYWGQGTQVTVSS”, the “polyreactivity (PSR sort gate)” value was “high polyreactivity”.
In the case of “QVQLVESGGGLVQAGGSLRLSCAASGSIFSVNAMGWYRQAPGKERELVAGITISGGRTYYADSVKGRFTISRDNAKNTVYLEMNSLKPEDTAVYYCAADWVYPPGLKDSVHFGEYDYWGQGTQVTVSS”, the “polyreactivity (PSR sort gate)” value is reported as “low polyreactivity”.
In the case of “QVQLVESGGGLVQAGGSLRLSCAASGSTFIVYAMGWYRQATGKERELVAAISLDGGSTYYADSVKGRFTISRDNAKNTVYLQMNSLKPEDTAVYYCNADYYANSITYDSWGQGTQVTVSS”, the “polyreactivity (PSR sort gate)” value is reported as “low polyreactivity”.
In the case of “QVQLEDSLGGLVQAGGSLRLSCAASGGIFGLYDMGWYRQEPGKERELVAAISWSGGDTYYADSVKGRFTISRDNAKNTVYLQMNSLKPEDTAVYYCAADTYYYSGYEYDYWGQGTQVTVSS”, the “polyreactivity (PSR sort gate)” value is reported as “high polyreactivity”.
In the case of “QVQLVETGGGLDQAGGSLRLSCAASGFTLHRNAKGWYRQAPRKERELVATNSWTGGSTYYADSVKGRFTISRDTAKNTVYLQMNSLKPEDTAVYYCAARGHWSIYGYYYLGATAFGYWGQGTQVTVSS”, the “polyreactivity (PSR sort gate)” value is reported as “low polyreactivity”.
In the case of “QVQLVESGGGLVQAGGSLRLSCAASGSTFLDYTMGWYRQAPGKERELVAVISYRAGSTYYADSVKGRFTISRDNAKNTVYLQMNSLKPEDTAVYYCNADYYNYWLRRRYVWYESWGQGTQVTVSS”, the “polyreactivity (PSR sort gate)” value is reported as “low polyreactivity”.
For “QVQLVESGGGLVQAGGSLRLSCAASGRTFAGYAMGWYRQAPGKERELVAAISGSGGRTYYADSVKGRFTISRDYAKNTVYLQMNSLKPEDTAVYYCAASQRVYIARSDYWGQGSQVTVSS”, the “polyreactivity (PSR sort gate)” value was “high polyreactivity”.
For “QVQLVESGGGLVQAGGSHRLSCAASGGTFNSNAMGWYRQAPGKERELVASITWRGGTYYADSVKGRFTISRDNAKNTVYLQMNSLKPEDTAVYYCAARGTIPGIHWIYYYWGQGTQVTVSS”, the “polyreactivity (PSR sort gate)” value was “high polyreactivity”.
For “QGQLVESGGGLVQAGGSLRISSAASGGNFPGNTMGWYRLAPGKESELVAAISNGVSTNYADSVKGGFTISRDNAKNTVYLQMNSQKPEDTAVYYCAAEWSWWDGEDYHFEYDYWGQGTQVTVSS”, the “polyreactivity (PSR sort gate)” value was “low polyreactivity”.
With “QVQLVESGGGLVQAGGSLRLSCAASGFTFSSYAMGWYRQAPGKERELVAAISTRGGSTYYADSVKGRFTISRDNAKNTVYLQMNSLNPEDSAVYYCAAPVNTSGDEYGYWGQGTQVTVSS” the “polyreactivity (PSR sort gate)” value was “low polyreactivity”.
For “QVQLVESGGGLVQAGGSLRLSCAASGRIFAYYAMGWYREAAGKERELVAAITTNGGGTYYADSVKGRFTISRDNAKNTVYLQMNSLKPEHTAVYYSNADKQRSSIFDYWGQGTQVTVSS”, the “polyreactivity (PSR sort gate)” value was “low polyreactivity”.
In the case of “QVQHVESGGGLVQAGGSLRLSCAASGFTFLKNAMGWYRQAPGKERELVAAITSSGGRTYYADSVKGRFTISRDNAKNTVYCQMISLKPEDTAVYYCNKGPLPGYDYWGQGTQVTVSS”, the “polyreactivity (PSR sort gate)” value is reported as “high polyreactivity”.
In the case of “QVQLVESGGGLVQAGGSLRLSCAASGRIFQPNAMGWYRQATGNERELVAAISSSGGRTYYADSVKGRFTISRDNAKNTVYLQMNSLKPEDTAVYYCNAGGYRYRSYDYWGQGNQVTVSS”, the “polyreactivity (PSR sort gate)” value is reported as “high polyreactivity”.
In the case of “QVQLVESGGGLVQAGGSLRLSCAASGRIFPFYVMGWYRQAPGKERELVASIRGGGSTNYADSVKGRFTISRDNAKNTVYLQMNSLKPEDTAVYYCNAARRYRAPLYDYWGQGTQVTVSS”, the “polyreactivity (PSR sort gate)” value is reported as “high polyreactivity”.
With “QVQLVESGGGLVQAGGSLRLSCAASGRIFHYAMGWYRQAPGKERELVAGISKRGGSTYYADSVKGRFTISRDNAKNTVYLQMNSLKPEDTAVYYCAAGRAYDGTKHDYWGQGSQVTVSS” the “polyreactivity (PSR sort gate)” value was “high polyreactivity”.
In the case of “QVQLVESGGGLVQAGGSLRLSCAASGSTFYLYAMGWYRQAPGKERELVAAITFRGSRTYYADSVKGRFTISRDNAKNTVYLQMNRLKPEDTAVYYCAKEKYRTREHDSWGQGTQVTVSS”, the “polyreactivity (PSR sort gate)” value is reported as “low polyreactivity”.
With “QVQLVESGGGLVQAGGSLRLSCAASGSTFWAYVMGWYRQAPGKERELVAAISKSGVRTHYADSVKGRFTISRDNAKNTVYLQMNSLKPEDTAVYYCAAGGVGNLDDYWGQVTQVTVSS” the “polyreactivity (PSR sort gate)” value was “high polyreactivity”.
